Test results from US20130130989A1 (AGENCY FOR SCIENCE TECHNOLOGY AND RESEARCH, published 2013).
Square brackets hold non-standard residues; d marks the D form. Ends that are not written are not given here. αMeF = C[C@](N)(Cc1ccccc1)C(=O)O; Ac5c = NC1(C(=O)O)CCCC1; Aib = CC(C)(N)C(=O)O

B1: Tr2_me5-1 peptide (YDRE*LL5FQF) (peptide)
peptide: YDREXLLXFQF
modifications: not fully specified; Cα-methyl-L-phenylalanine at position 628; 1-aminocyclopentanecarboxylic acid (A5C) at position 631
notes: also called truncated modified Tr2_me5-1 peptide
B2: Tr2_AIB3_A4C (peptide)
peptide: YDREFLLXFQF
modifications: position 631 (printed '4') = 1-amino cyclobutanoic acid; C-terminal amide (-NH2)
B3: Tr2_me5_3 (peptide)
peptide: YDREFLLXFQX
modifications: position 631 (printed '5') = 1-amino cyclopentanoic acid; position 634 (printed '*') = Cα-Me-L-Phenylalanine; C-terminal amide (-NH2)
B4: Tr2_AIB3_A3C (peptide)
peptide: YDREFLLXFQF
modifications: position 631 (printed '3') = 1-amino cyclopropanoic acid; C-terminal amide (-NH2)
B5: eIF4G1_me5 peptide (KKRYDRE*LL5FQF) (peptide)
peptide: KKRYDRE[αMeF]LL[Ac5c]FQF
modifications: not fully specified (C-terminus)
notes: also called modified 14mer eIF4G1_me5 peptide; helically stabilized peptide

Assays:
[1] = target: eukaryotic translation initiation factor 4E (eIF4E), full length human (human) (UniProt P06730); assay: Kd estimated from FTS thermal shift
[2] = target: eukaryotic translation initiation factor 4E (eIF4E), full length human (human) (UniProt P06730); assay: fluorescence-based thermal shift assay (FTS), Sypro Red, 10 µM eIF4E, 100 µM peptide
[3] = target: T1, eukaryotic translation initiation factor 4E (eIF4E), full length human (human, UniProt P06730 2-217); assay: ITC
T1 construct: mature; read as P06730; also called eIF4E protein

[4] = target: T1, eukaryotic translation initiation …; assay: ITC, peptide titrated into eIF4E, 20° C.
Description: (§1) ITC experiments were conducted in a VP-ITC Unit (MicroCal, Northampton, Mass.). […] The buffer used for dialysis of the protein was used to dilute the peptides to their final working concentration. The protein buffer solution was matched to the peptide solution by the addition of DMSO in the case of the non TAT fused peptides. The titration experiments were performed at 20° C. with an initial 2 μl injection with duration of 4 s, fooled by 28 10 μl injections with a duration of 7.1 s. The spacing between each injection was 150 s. The stirring speed during the titration was 290 rpm. Data was analyzed using Microcal Origin software by fitting to a single-site binding model. Correction for the enthalpy of ligand dilution was carried out by subtracting a linear fit from the last three data points of the titration, after the interaction had reached saturation.

[5] = target: T1, eukaryotic translation initiation …; assay: Kd estimated from the FTS thermal shift of eIF4E (10 µM eIF4E, 100 µM peptide)
Description: A fluorescence based thermal shift assay was used to screen and rank the rationally designed eIF4E binding derivative peptides. The fluorescent dye Sypro Red was used to monitor thermal denaturation of eIF4E. Binding of the dye molecule to eIF4E, as it unfolds due to thermal denaturation, results in a sharp increase in the fluorescence intensity. The midpoint of this transition is termed the Tₘ. The thermal shift assay was conducted in the iCycler Real Time Detection System (Bio-Rad, Hercules, Calif.).

[6] = target: T1, eukaryotic translation initiation …; assay: fluorescence-based thermal shift assay (FTS), Sypro Red, 10 µM eIF4E, 100 µM peptide
Description: The fluorescent dye Sypro Red was used to monitor thermal denaturation of eIF4E. Binding of the dye molecule to eIF4E, as it unfolds due to thermal denaturation, results in a sharp increase in the fluorescence intensity. The midpoint of this transition is termed the Tₘ. The thermal shift assay was conducted in the iCycler Real Time Detection System (Bio-Rad, Hercules, Calif.). The system contains a heating/cooling device for accurate temperature control and a charge-coupled device (CCD) detector for simultaneous imaging of the fluorescence changes in the wells of the microplate. […] The final protein concentration was 10 μM. Protein samples were incubated with derivative peptides at a concentration of a 100 μM. The plate was heated from 20 to 90° C. with a heating rate of 1° C./min.

[7] = target: T1, eukaryotic translation initiation …; assay: ITC, peptide titrated into eIF4E, 20 °C, PBS, one-to-one binding model; entropy calculated; design: unit not given here
[8] = target: T1, eukaryotic translation initiation …; assay: Kd estimated from the FTS thermal shift of eIF4E (10 µM eIF4E, 200 µM peptide)
[9] = target: T1, eukaryotic translation initiation …; assay: fluorescence-based thermal shift assay (FTS), Sypro Red, 10 µM eIF4E, 200 µM peptide (*)
Description: A fluorescence based thermal shift assay was used to screen and rank the rationally designed eIF4E binding derivative peptides. The fluorescent dye Sypro Red was used to monitor thermal denaturation of eIF4E. Binding of the dye molecule to eIF4E, as it unfolds due to thermal denaturation, results in a sharp increase in the fluorescence intensity. The midpoint of this transition is termed the Tₘ. The thermal shift assay was conducted in the iCycler Real Time Detection System (Bio-Rad, Hercules, Calif.). The system contains a heating/cooling device for accurate temperature control and a charge-coupled device (CCD) detector for simultaneous imaging of the fluorescence changes in the wells of the microplate.

[10] = target: T1, eukaryotic translation initiation …; assay: fluorescence-based thermal stability assay (FTS)
[11] = target: T1, eukaryotic translation initiation …; assay: ITC, apparent Kd
[12] = target: T1, eukaryotic translation initiation …; assay: FTS thermal shift assay
[13] = target: T1, eukaryotic translation initiation …; assay: ITC, peptide titrated into eIF4E, 20 °C, PBS, one-to-one binding model; design: unit not given here
[14] = target: T1, eukaryotic translation initiation …; assay: ITC, peptide titrated into eIF4E, 20 °C, PBS, one-to-one binding model; entropy calculated
[15] = target: T1, eukaryotic translation initiation …; assay: ITC, peptide titrated into eIF4E, 20 °C, PBS, one-to-one binding model
Description: as §1

[16] = target: T1, eukaryotic translation initiation …; assay: ITC, apparent Kd against the template peptide
Description: as §1

T1 sequence (P06730 2-217): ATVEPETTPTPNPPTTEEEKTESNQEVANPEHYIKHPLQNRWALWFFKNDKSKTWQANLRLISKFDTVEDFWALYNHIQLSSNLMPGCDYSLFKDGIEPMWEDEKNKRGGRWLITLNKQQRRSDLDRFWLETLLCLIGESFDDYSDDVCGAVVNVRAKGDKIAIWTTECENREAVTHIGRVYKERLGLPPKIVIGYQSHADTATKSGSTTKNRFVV
eukaryotic translation initiation factor 4E (eIF4E), full length human (human), sequence (P06730 2-217): as above

| Molecule | Kd [5] | ΔT (°C) [6] | other results |
| --- | --- | --- | --- |
| Tr2_AIB3_A5C peptide (YDREFLL5FQF) |  |  | Kd [1]: 1450 nM; ΔT (°C) [2]: 6.6 °C |
| B1 | 360 nM | 8.8 °C | binding enthalpy [3]: -16.1 kcal/mol; Kd [4]: 146 nM; -TΔS [7]: -6.89 |
| YDREFLLGFQ-NH2 [Tr3] |  |  | Kd [8]: 35200 nM; ΔT (°C) [9]: 2.25 °C |
| Y[Aib]REFLLGFQF (not fully specified (C-terminus)) [Tr2_AIB1 peptide] | 29800 nM | 1.32 °C |  |
| B2 | 2350 nM | 5.8 °C |  |
| B3 | 2400 nM | 5.8 °C |  |
| KKRYDREFLL-NH2 [Tr1] |  |  | Kd [8]: 50200 nM; ΔT (°C) [9]: 1.7 °C |
| YDREFLLXFQF (not fully specified; G631 replaced with aminoisobutyric acid (Aib)) [Tr2_AIB3 peptide] | 3050 nM | 5.42 °C |  |
| YDREFLL[Ac5c]AQF (not fully specified (C-terminus)) [Tr2_ALA_A5C5 (Tr2_AIB3_A5C with F632 replaced with alanine)] | 8400 nM | 3.65 °C |  |
| YDREALL[Ac5c]FQF (not fully specified (C-terminus), 29=625, 30=626, 31=627, 34=633)) [Tr2_ALA_A5C4 (Tr2_AIB3_A5C with F628 replaced with alanine)] | 8090 nM | 3.72 °C |  |
| YDRAFLL[Ac5c]FQF (not fully specified (C-terminus)) [Tr2_ALA_A5C3 (Tr2_AIB3_A5C with alanine at position 627)] | 1220 nM | 4.22 °C |  |
| YDREFLL[Ac5c]FQA (not fully specified (C-terminus)) [Tr2_ALA_A5C7 (Tr2_AIB3_A5C with F634 replaced with alanine)] | 2900 nM | 5.48 °C |  |
| YDAEFLL[Ac5c]FQF (not fully specified (C-terminus)) [Tr2_ALA_A5C2 (Tr2_AIB3_A5C with R626 replaced with alanine)] | 14300 nM | 2.69 °C |  |
| YAREFLL[Ac5c]FQF (not fully specified (C-terminus)) [Tr2_ALA_A5C1 (Tr2_AIB3_A5C with alanine at position 625)] | 760 nM | 5.02 °C |  |
| YDREFLL[Ac5c]FAF (not fully specified (C-terminus)) [Tr2_ALA_A5C6 (Tr2_AIB3_A5C with alanine at position 633)] | 1370 nM | 6.72 °C |  |
| YGRKKRRQRRR (also called TAT tag) [TAT peptide (YGRKKRRQRRR)] |  |  | binding result [10]: no binding |
| YDR[Aib]FLLGFQF (not fully specified (C-terminus)) [Tr2_AIB2 peptide] |  |  | binding result [6]: no binding (tested: 100 µM) |
| YGRKKRRQRRRGTKKRYDRE[αMeF]LL[Ac5c]FQF [TAT_eIF4G1_me5 peptide (YGRKKRRQRRRGTKKRYDRE*LL5FQF)] |  |  | Kd [11]: 10.2 nM; thermal shift in the Tm of eIF4E greater than that of the TAT_eIF4G1 peptide [12]: ~0.82 ° C.; ΔH [13]: -12.4; ΔS [14]: -5.69 Cal mol-1K-1 |
| YDREFLLGF[Aib]F (not fully specified (C-terminus)) [Tr2_AIB4 peptide] | 25100 nM | 1.52 °C |  |
| YDREFLLGFQF (not fully specified (C-terminus), also called truncated Tr2) [Tr2 peptide (truncated 11mer eIF4G1 peptide)] | 5960 nM | 4.2 °C | binding enthalpy [3]: -10.9 kcal/mol; Kd [4]: 1040 nM; Kd [15]: 1010 nM; -TΔS [7]: -2.91 |
| ADREFLLGFQF (not fully specified (C-terminus)) [11mer (control) peptide with the conserved tyrosine mutated to alanine] |  |  | binding result [9]: no binding (tested: 200 µM); ΔT (°C) [9]: 0.65 °C |
| YDREFLLAFQF-NH2 (not fully specified) [Tr2_AIB3_ALA] | 2550 nM | 5.6 °C |  |
| B4 | 2500 nM | 5.67 °C |  |
| YGRKKRRQRRRGTKKRYDREFLLGFQF (also called eIF4G1 TAT fused peptide) [TAT_eIF4G1 peptide] |  |  | fold lower Kd than the shorter parent peptide (eIF4G1) [3]: ~2.7 fold; Kd [11]: 56.2 nM; ΔH [13]: -5.52; ΔS [14]: 15 Cal mol-1K-1 |
| B5 | 7 nM | 14.6 °C | binding enthalpy [3]: -14.4 kcal/mol; ΔΔG against the template peptide (eIF4G1) [3]: ~1.6 kcal/mol; fold increase in thermal shift over the original 14-mer eIF4G1 peptide [12]: 1.7 fold; thermal shift in the melting temperature of eIF4E [12]: ~14 ° C.; Kd [4]: 9.43 nM; fold more potent than the template peptide (eIF4G1) [16]: ~15.7 fold; -TΔS [7]: -3.69 |
